Results as given in patent US20040253243.

Tests used:
[1] = target: PDGF-BB (Homo sapiens) (UniProt P01127); conditions: [PEG40K]-NH2-dCdAdGdGdCfUdAfCmG-PEG-dCdGTdAmGdAmGdCdAfUfCmA-PEG-TdGdATfCfCfUmG-3T (f 2'-F, m 2'-OMe, d deoxy; PEG spacers)
[2] = target: PDGF-AB (Homo sapiens) (UniProt P04085+P01127); conditions: [PEG40K]-NH2-dCdAdGdGdCfUdAfCmG-PEG-dCdGTdAmGdAmGdCdAfUfCmA-PEG-TdGdATfCfCfUmG-3T (f 2'-F, m 2'-OMe, d deoxy; PEG spacers)
Chain of PDGF-AB (Homo sapiens) (P01127 82-190, chain 2 of 2, other chains not shown): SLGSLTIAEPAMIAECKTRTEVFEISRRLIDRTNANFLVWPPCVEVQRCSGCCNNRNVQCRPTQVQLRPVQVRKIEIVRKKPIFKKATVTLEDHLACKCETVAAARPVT

Chain of PDGF-BB (Homo sapiens) (P01127 82-190): as the sequence (P01127 82-190, chain 2 of 2, other chains not shown) above

CAGGCUACGCGTAGAGCAUCATGATCCUG [ARC127] gave a Kd [1] of 0.1 nM and a Kd [2] of 0.1 nM.
